The nanobody polyreactivity screen of Harvey et al. (2022)

Assay: yeast display, Sf9 membrane polyspecificity reagent, FACS + sequencing; frameworks hold sequencing errors
Summary of the method: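 Using colony PCR, genes from sorted yeast display clones were amplified, then sequenced on MiSeq at 2 × 250 and filtered by CDR length. The clones had been stained with 10% biotinylated, detergent-solubilized Sf9 membrane reagent for 1 hour at 4 °C and sorted by FACS into low and high (top ~1%) gates on anti-HA and streptavidin fluorescence. Polyreactivity labels come from the gate of origin.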

Sequence	polyreactivity (PSR sort gate)
QVQLVESGGGLVQAGGSLRLSCAASGYLFSYYAMGWSRQAPGKERELVATIDWGGGSTYYADSVKGRFTISRDNAKNTVYLQMNSLKPEDTGVYYCSKDYYITKYGYRYDSWGQGTQVTVSS	low polyreactivity
QVQLVESGGGLVQAGGSLRLSCAASGYNFENNVMGWYRQAPGKERELVAVISWNGGRTYYADSVKGRFTISRDNAKNTVYLQMNSLKPEDTAVYYCNDQGYFWSESIVYDYWGQGTQVTVSS	low polyreactivity
QVQLVESGGGLVQAGGSLRLSCAASGYNFIVYTMGWYRQAPGKERELVAAISSGGITDYADSVKGRFTISRDNAKNTVYLQMNSLKPEDTAVYYWGQGTQVTVSS	low polyreactivity
QVQLVESGGGLVQAGGSLRLSCAASGYNFPLYSMGWYTQAPGKERELVADINIGGASTYYADSVKGRFTISRDNAKNTVYLQMNSLKPEDTAVYDCAKEYFDGYFPTFDYDYWGKGTQVTVSS	low polyreactivity
QVQLVESGGGLVQAGGSLRLSCAASGYSLYANAKGWSRQAPGKERELVASITFGDDSTYYADSVKGRFTISRDNAKNTVDLQMNSLKPEDTAVYYCNADHKVEVEDDYCGQGTQVTVSS	low polyreactivity
QVQLVESGGGLVQAGGSLRLSCAASGYTFAGNAMGWYRQAPGKERELVAAISRSGGRTYYADSVKGRFTISRDNAKNTVYLQMNSLKPEDTAVYYCAAYGYKYDYWGQGTQVTVSS	high polyreactivity
QVQLVESGGGLVQAGGSLRLSCAASGYTFASYDMGWYRQAPGKERELVAAIDWSGGSTYYADSVKGRFTISRDNAKNTVYLQMNSLKPEDTAVYYCAAERPWTYGSDGMDYWGQGTQVTVSS	low polyreactivity
QVQLVESGGGLVQAGGSLRLSCAASGYTFDVYAMGWYRQAPGTERELVAAISDSGGSTYYADSVKGRFTISRDNAKNTVYLQMNSLKPEDTAVYFCAAGYDYFYAIVSPSEYDYWGQGTQVTVSS	low polyreactivity
QVQLVESGGGLVQAGGSLRLSCAASGYTFDYNAMGWYRQAPGKEREFVATITASGDSTYYADSVKGRFTISRDNAKNTVYLQMNSLKPEDTAVYYCATEKRDVYFTAKYDYWGQGTQVTVSS	low polyreactivity
QVQLVESGGGLVQAGGSLRLSCAASGYTFESYTMGWYRQAPGKEREFVAVISSSDTSTSYADSVKGRFTISRDNAKNTFYLQMNSLKPVDTAVYYCAAYSSPYYITYYWYNYDYWGQGTQVTVSS	low polyreactivity
QVQLVESGGGLVQAGGSLRLSCAASGYTFFLNVMGWYRQAAGKEWELVAAISYSGGSTNYADSVKGRFTISRDNAKNTVYLQMNSLKPEDTAVYYCAVTTYSGLYGFEYWGQGTQVTVSS	low polyreactivity
QVQLVESGGGLVQAGGSLRLSCAASGYTFGFYAMGWYRQAPGKERELVAAISSSGVSTSYADSVKGRFTISRDNAKNTVYLHMNSLKPEDNAVYYCNAPSYYYAYDYWGQGTQVTVSS	high polyreactivity
QVQLVESGGGLVQAGGSLRLSCAASGYTFGPYAMGWYRQAPGKERELVAAITTRGGSTYYADSVKGRFTISRDNAKNTVYLQMNSLKPEDTAVYSCAAVVNSKSIQRVVRYYYWGQGTQVTVSS	high polyreactivity
QVQLVESGGGLVQAGGSLRLSCAASGYTFGSSTMGWYRPAAGTERELVAAISNRGGPYYADAVKGRFTISRDNAKNTVYLQMNSLTPEDTAVYYCAVARRCGYDYWGQGTQVTVSS	high polyreactivity
QVQLVESGGGLVQAGGSLRLSCAASGYTFGSYAMGWYRQAPGTERELVAAIRGSGGSTYYADSVKGRFTISRDNAKNTVYLQLNSLKPEDTAVYYGATSVRRGGRQLYNYWGQGTQVTVSS	high polyreactivity
QVQLVESGGGLVQAGGSLRLSCAASGYTFGYNARGWYRQAPGKERELVANITWRGGSTNYADSVKGRFTISRDNAKNTVYLQMNSLKPEDTAVYYCAADRPWYYGRYYYWGQGTQVTVSS	high polyreactivity

Sequence	polyreactivity (PSR sort gate)
QVQLVESGGGLVQAGGSLRLSCAASGYTFGYNVMGWYRQAPGKERELVAVISSGGTTYYADSVKGRFTISRDNAKNTVYLQMNSLKPEDTAVYYCNKRSAYKYRTHYGYYYWGQGTQVTVSS	high polyreactivity
QVQLVESGGGLVQAGGSLRLSCAASGYTFIVNAIGWYRQAPGKERQLVAAISRSGSSTRSADSVKWRFTISRDNAKNTVYLLMNRLKPEDTSVYYCAADLYSSEGRYYFWGQGTQVTVSS	high polyreactivity
QVQLVESGGGLVQAGGSLRLSCAASGYTFIVNAMGWYRQAPGKERELVAAISRSGSSTRYADSVKWRFTISRDNAKNTVYLQMNSLKPEDTAVYYCGADLYSSEGRYYYWGQGTQVTVST	high polyreactivity
QVQLVESGGGLVQAGGSLRLSCAASGYTFKLYAMVWSRQAPGKERELVAAIRRGGTTNYADSVNGRFTISRDNSKNTVYFQMNSLKPADTAVYYCAADGWYPGFYYPYTEFDYWGQGTQVTVSS	high polyreactivity
QVQLVESGGGLVQAGGSLRLSCAASGYTFKRYAMGWSRQAPGKERELVAAISSSGSSTYYADSVKGRFTISRDNAKNTVYLQMNSLKPEDTAVYYCAAVYRYGYWGQGTQVTVSS	high polyreactivity
QVQLVESGGGLVQAGGSLRLSCAASGYTFKRYAMGWYRQPPGKERELVAAITSRGGNTYYADSVKGRFTISRDNAKNTVYLQMNSLKPEDTAVYYCAVGGWSAYHLSQMYYWGQGTQVTVSS	high polyreactivity
QVQLVESGGGLVQAGGSLRLSCAASGYTFKTNDMGRYRQAPGKEREFVAAIDSGGNTYYADSVKGRFTISRDNAKNTVYLQMNSVKPEDTAVYYCGAYRDYQYDYWGQGTQVTVSS	low polyreactivity
QVQLVESGGGLVQAGGSLRLSCAASGYTFKTYAMGWYIQAPGKERELVAAISGSGGSTYYADSVMGRFTISRDNAKNTVYLQLKSLKPEDTEVYYCAATNWWGTEYDYWGQGTQVTVSS	high polyreactivity
QVQLVESGGGLVQAGGSLRLSCAASGYTFLGYAMGWYRQAPGKERELVAAIRRSGGRTYYADSVKGRFTISRDNAKNTVYLQMNSLKPEDTAVYYCAKGYVGEYDYWGQGTQVTVSS	high polyreactivity
QVQLVESGGGLVQAGGSLRLSCAASGYTFNKNTMGWYRQAPGKERELVAAISSSGGRTYYADSVKGRFTISRDNAKNTVYLQMNSLKPEDTAVYYCAARGYFKIHEYDYWGQGTQVTVSS	high polyreactivity
QVQLVESGGGLVQAGGSLRLSCAASGYTFPLYALGWYRQAPGKERELVADINIGGASTYYADSVKGRFTISRDNAKNTVYLQMNSLKPEDTAVYYCAKEYYDGFFPTFDYDYWGQVTQVTVSS	low polyreactivity
QVQLVESGGGLVQAGGSLRLSCAASGYTFPLYAMGWYRQAPGKERELVADINIGGASTYYADSVKGRFTISRDNAKNTVYLQKNSLKPEDTAVYYCAKEYYDGYFPTFDSDYWGQGTQVTVSS	low polyreactivity
QVQLVESGGGLVQAGGSLRLSCAASGYTFQPYTMGWYRQAPGKERELVAAISKSGTRTYYADSVKGRFTISRDNEKNTVYLQMNSLKPEDTAVYYCAARYTGFLFDYWGQGTQVTVSS	high polyreactivity
QVQLVESGGGLVQAGGSLRLSCAASGYTFQYNDMGWYRQAPGKERELVAGISIGGSTNYADSVKGRFTISRDNAKNTVYLQMNSLKPEDTAVYYCAARTLWFPGTTSTSVGYKYGYWGQGTQVTVSS	low polyreactivity
QVQLVESGGGLVQAGGSLRLSCAASGYTFRAYVMGWYRQAPGKERELVAGITRRGGTTYYADSVKGRFTISRDNAKNTVYLQMNSLKTEDTAVYYCNAVYRSGSIPYDSWGQGTQVTVSS	high polyreactivity
QVQLVESGGGLVQAGGSLRLSCAASGYTFRFNAMGWYRQAPGKEREFVAAIDFGGAGTYYADSVKGRFTISRDNAKNTVYLQMNSLKPEVTAVYYCNARDGVTTEFDYWGQGTQVTVSS	low polyreactivity
